Data as given in paper PMC8677947.

Columns and labels:
[1] = target: GCN4 leucine zipper (Saccharomyces cerevisiae) (UniProt P03069); details: cited from earlier work
[2] = target: GCN4^WT (leucine zipper dimerization element of GCN4), C-terminal 6x His-tagged (yeast); test: native gel or EMSA; native (nondenaturing) PAGE beside SDS-PAGE of GCN4^WT and GCN4^3mut

Sequence of GCN4^WT (leucine zipper dimerization element of GCN4), C-terminal 6x His-tagged (domain or fragment) (P03069 whole entry, the tested form may be a part): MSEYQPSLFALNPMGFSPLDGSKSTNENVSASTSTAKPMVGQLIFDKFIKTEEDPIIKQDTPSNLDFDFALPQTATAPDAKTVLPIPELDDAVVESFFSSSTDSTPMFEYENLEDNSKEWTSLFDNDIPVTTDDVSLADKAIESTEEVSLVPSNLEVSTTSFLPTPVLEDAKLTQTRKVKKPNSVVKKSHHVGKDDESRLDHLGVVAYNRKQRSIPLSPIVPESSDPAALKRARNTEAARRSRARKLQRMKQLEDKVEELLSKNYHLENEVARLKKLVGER
Sequence of GCN4 leucine zipper (P03069 250-277): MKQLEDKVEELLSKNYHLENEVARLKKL

| Substance | Kd [1] [nM] | stoichiometry N [2] |
| --- | --- | --- |
| GCN4 leucine zipper (from UniProt P03069) | 0.18 |  |
| GCN4^WT (leucine zipper dimerization element of GCN4), C-terminal 6x His-tagged (domain or fragment) |  | 2 |
